{
  "source": "patent US20050113284A1",
  "about": "(published 2005)",
  "binders": {"B1": {"name": "prey clone No. 3-312: C-terminal 89 amino acids of the human c-Met β chain fused to GAL4-AD (other, not shown: large carriers)", "chain": "LLQPEYCPDPLYEVMLKCWHPKAEMRPSFSELVSRISAIFSTFIGEHYVHVNATYVNVKCVAPYPSLLSSEDNADDEVDTRPASFWETS"}, "B2": {"name": "prey clone No. 2-22: C-terminal 93 amino acids of human MERMUC fused to GAL4-AD (other, not shown: large carriers)", "chain": "SSRGTNSTLAKITTSAKTTMKPPTATPTTARTRPTTDVSAGENGGFLLLRLSVASPEDLTDPRVAERLMQQLHRELHAHAPHFQVSLLRVRRG"}, "B3": {"name": "c-Met prey protein G (amino acids 993-1043 of SEQ ID NO: 4) fused to GAL4-AD (other, not shown: large carriers)", "chain": "RRLLQPEYCPDPLYEVMLKCWHPKAEMRPSFSELVSRISAIFSTFIGEHYV", "notes": "also called prey DNA G"}, "B4": {"name": "c-Met prey protein B (amino acids 1013-1083 of SEQ ID NO: 4) fused to GAL4-AD (other, not shown: large carriers)", "chain": "WHPKAEMRPSFSELVSRISAIFSTFIGEHYVHVNATYVNVKCVAPYPSLLSSEDNADDEVDTRPASFWETS", "notes": "also called prey DNA B"}, "B5": {"name": "c-Met prey protein C (amino acids 1023-1083 of SEQ ID NO: 4) fused to GAL4-AD (other, not shown: large carriers)", "chain": "FSELVSRISAIFSTFIGEHYVHVNATYVNVKCVAPYPSLLSSEDNADDEVDTRPASFWETS", "notes": "also called prey DNA C"}, "B6": {"name": "prey clone No. 2-211: C-terminal 56 amino acids of human MERMUC fused to GAL4-AD (other, not shown: large carriers)", "chain": "VSAGENGGFLLLRLSVASPEDLTDPRVAERLMQQLHRELHAHAPHFQVSLLRVRRG"}, "B7": {"name": "prey clone No. 3-309: C-terminal 91 amino acids of the human c-Met β chain fused to GAL4-AD (other, not shown: large carriers)", "chain": "RRLLQPEYCPDPLYEVMLKCWHPKAEMRPSFSELVSRISAIFSTFIGEHYVHVNATYVNVKCVAPYPSLLSSEDNADDEVDTRPASFWETS", "notes": "also called human HGF receptor c-Met prey vector"}, "B8": {"name": "MERMUC bait protein C260ΔC53 (amino acids 244-450 of SEQ ID NO: 10) fused to GAL4-DB (other, not shown: small tags and cut ends)", "chain": "VKASSTSDPPALPDSTEAKPHITEVTASAETLSTAGTTESAAPHATVGTPLPTNSATEREVTAPGATTLSGALVTVSRNPLEETSALSVETPSYVKVSGAAPVSIEAGSAVGKTTSFAGSSASSYSPSEAALKNFTPSETPTMDIATKGPFPTSRDPLPSVPPTTTNSSRGTNSTLAKITTSAKTTMKPPTATPTTARTRPTTDVSA", "notes": "also called C260A53; C260AC53"}, "B9": {"name": "c-Met prey protein A (amino acids 1003-1083 of SEQ ID NO: 4) fused to GAL4-AD (other, not shown: large carriers)", "chain": "DPLYEVMLKCWHPKAEMRPSFSELVSRISAIFSTFIGEHYVHVNATYVNVKCVAPYPSLLSSEDNADDEVDTRPASFWETS", "notes": "also called prey DNA A"}},
  "key": {"[1]": {"biological_target": "T1, human MERMUC bait-2 protein (C-terminal 123 amino acids of human MERMUC fused to GAL4-DB) (yeast; human)", "T1 construct": "also called MERMUC bait protein; fusion protein A", "test": "yeast two-hybrid screen of a human kidney cDNA library", "description": "Specifically, yeast two hybrid system (Proc. Natl. Acad. Sci. USA., 1991, Vol.88, p.9578-9582) was performed to screen a human kidney cDNA library using cDNA corresponding to the C-terminal region of the human MERMUC as the bait (that is, fishing bait).\nOn the other hand, each cDNA of the human kidney derived cDNA library (CLONTECH) that is used for the screening with the bait vector is inserted in pADK vector (tryptophan biosynthesis gene as a marker). Therefore, proteins produced through the expression of each of these cDNAs in yeast are produced as a fusion protein ([fusion protein B]) with the GAL4 transcriptional activation region (GAL4-AD)."}, "[2]": {"biological_target": "T1, human MERMUC bait-2 protein (C-terminal …)", "test": "yeast two-hybrid (growth on SD/-Leu,-Trp,-His and SD/-Leu,-Trp,-Ade)", "description": "The binding activity between the c-Met prey proteins derived from the 7 DNA fragments and the MERMUC bait protein was analyzed by the yeast two-hybrid system described in Example 1. Specifically, the binding activity was evaluated based on the growth of yeast transformed with the vector on 2 kinds of yeast minimum media, i.e., (1) SD/-Leu, -Trp, -His media and (2) SD/-Leu, -Trp, -Ade media."}, "[3]": {"biological_target": "MERMUC bait protein C260 (amino acids 244-503 of SEQ ID NO: 10) fused to GAL4-DB (yeast; human, UniProt P04386 1-147)", "test": "yeast two-hybrid", "description": "(§1) Yeast AH109 strain was cotransfected with each of the bait vectors and the prey vector carrying human HGF receptor c-Met (DNA corresponding to the C-terminal 91 amino acids of the human c-Met; clone No. 3-309) identified in Example 1.\n(§2) The binding ability of MERMUC bait protein derived from each of the bait vectors to the HGF receptor c-Met β chain was analyzed by the yeast two-hybrid system described above."}, "[4]": {"biological_target": "MERMUC bait protein C53 (amino acids 451-503 of SEQ ID NO: 10) fused to GAL4-DB (yeast; human, UniProt P04386 1-147)", "test": "yeast two-hybrid", "description": "as §1, §2"}, "[5]": {"biological_target": "B7", "test": "yeast two-hybrid", "description": "as §1, §2"}},
  "data": [
    {"binder": "B1", "values": [
      {"measurement": "binding result", "setting": "[1]", "result": "binds"}
    ]},
    {"binder": "B2", "values": [
      {"measurement": "binding result", "setting": "[1]", "result": "binds"}
    ]},
    {"binder": "B3", "values": [
      {"measurement": "binding result", "setting": "[2]", "result": "no binding"}
    ]},
    {"binder": "B4", "values": [
      {"measurement": "binding result", "setting": "[2]", "result": "binds"}
    ]},
    {"binder": "B5", "values": [
      {"measurement": "binding result", "setting": "[2]", "result": "no binding"}
    ]},
    {"binder": "B6", "values": [
      {"measurement": "binding result", "setting": "[1]", "result": "binds"}
    ]},
    {"binder": "B7", "values": [
      {"measurement": "binding result", "setting": "[1]", "result": "binds"},
      {"measurement": "binding result", "setting": "[3]", "result": "binds"},
      {"measurement": "binding result", "setting": "[4]", "result": "binds"}
    ]},
    {"binder": "B8", "values": [
      {"measurement": "binding result", "setting": "[5]", "result": "no binding"}
    ]},
    {"binder": "B9", "values": [
      {"measurement": "binding result", "setting": "[2]", "result": "binds"}
    ]}
  ]
}
